Assay results published in the MegaScale stability set (Tsuboyama et al. 2023).

B1: EEHEE_rd4_0363 (parent)
chain: VTVDIKGMEYHFDNPEEAKKFAERMAKELGGELKVENGTLKVE

Variants of: B1
Assay: folding stability dG (cDNA display proteolysis); higher = more stable
Conditions: PBS, room temperature

In order of rising “folding stability dG” value:
1. VTVDIKGMEYHFDNPEPAKKFAERMAKELGGELKVENGTLKVE [E17P]  -0.343 kcal/mol
2. VTVDIKGMEYHFDNPPEAKKFAERMAKELGGELKVENGTLKVE [E16P]  -0.084 kcal/mol
3. VTVDIKGMEYHFDNPEGAKKFAERMAKELGGELKVENGTLKVE [E17G]  0.569 kcal/mol
4. VTVDIKGMEYHFDNPEWAKKFAERMAKELGGELKVENGTLKVE [E17W]  0.794 kcal/mol
5. VTVDIKGMEYHFDWPEEAKKFAERMAKELGGELKVENGTLKVE [N14W]  0.812 kcal/mol
6. VTVDIKGMEYHFDNPEYAKKFAERMAKELGGELKVENGTLKVE [E17Y]  0.905 kcal/mol
7. VTVDIKGMEYHFDNPERAKKFAERMAKELGGELKVENGTLKVE [E17R]  0.908 kcal/mol
8. VTVDIKGMEYHFDNPEFAKKFAERMAKELGGELKVENGTLKVE [E17F]  0.922 kcal/mol
9. VTVDIKGMEYHFDYPEEAKKFAERMAKELGGELKVENGTLKVE [N14Y]  0.952 kcal/mol
10. VTVDIKGMEYHFDNPENAKKFAERMAKELGGELKVENGTLKVE [E17N]  1.11 kcal/mol
11. VTVDIKGMEYHFDNPEKAKKFAERMAKELGGELKVENGTLKVE [E17K]  1.16 kcal/mol
12. VTVDIKGMEYHFDNPEIAKKFAERMAKELGGELKVENGTLKVE [E17I]  1.16 kcal/mol
13. VTVDIKGMEYHFDNPEVAKKFAERMAKELGGELKVENGTLKVE [E17V]  1.17 kcal/mol
14. VTVDIKGMEYHFDNPEHAKKFAERMAKELGGELKVENGTLKVE [E17H]  1.2 kcal/mol
15. VTVDIKGMEYHFDNPETAKKFAERMAKELGGELKVENGTLKVE [E17T]  1.23 kcal/mol
16. VTVDIKGMEYHFDNPGEAKKFAERMAKELGGELKVENGTLKVE [E16G]  1.24 kcal/mol
17. VTVDIKGMEYHFDNPREAKKFAERMAKELGGELKVENGTLKVE [E16R]  1.27 kcal/mol
18. VTVDIKGMEYHFDNPELAKKFAERMAKELGGELKVENGTLKVE [E17L]  1.31 kcal/mol
19. VTVDIKGMEYHFDNPKEAKKFAERMAKELGGELKVENGTLKVE [E16K]  1.33 kcal/mol
20. VTVDIKGMEYHFDNPESAKKFAERMAKELGGELKVENGTLKVE [E17S]  1.38 kcal/mol
21. VTVDIKGMEYHFDNGEEAKKFAERMAKELGGELKVENGTLKVE [P15G]  1.39 kcal/mol
22. VTVDIKGMEYHFDNPEMAKKFAERMAKELGGELKVENGTLKVE [E17M]  1.39 kcal/mol
23. VTVDIKGMEYHFDNPNEAKKFAERMAKELGGELKVENGTLKVE [E16N]  1.41 kcal/mol
24. VTVDIKGMEYHFDNNEEAKKFAERMAKELGGELKVENGTLKVE [P15N]  1.41 kcal/mol
25. VTVDIKGMEYHFDNREEAKKFAERMAKELGGELKVENGTLKVE [P15R]  1.45 kcal/mol
26. VTVDIKGMEYHFDNKEEAKKFAERMAKELGGELKVENGTLKVE [P15K]  1.45 kcal/mol
27. VTVDIKGMEYHFDNPEQAKKFAERMAKELGGELKVENGTLKVE [E17Q]  1.5 kcal/mol
28. VTVDIKGMEYHFDNTEEAKKFAERMAKELGGELKVENGTLKVE [P15T]  1.52 kcal/mol
29. VTVDIKGMEYHFDNPSEAKKFAERMAKELGGELKVENGTLKVE [E16S]  1.58 kcal/mol
30. VTVDIKGMEYHFDNDEEAKKFAERMAKELGGELKVENGTLKVE [P15D]  1.58 kcal/mol
31. VTVDIKGMEYHFDNPHEAKKFAERMAKELGGELKVENGTLKVE [E16H]  1.63 kcal/mol
32. VTVDIKGMEYHFDNSEEAKKFAERMAKELGGELKVENGTLKVE [P15S]  1.64 kcal/mol
33. VTVDIKGMEYHFDNPLEAKKFAERMAKELGGELKVENGTLKVE [E16L]  1.65 kcal/mol
34. VTVDIKGMEYHFDNPQEAKKFAERMAKELGGELKVENGTLKVE [E16Q]  1.67 kcal/mol
35. VTVDIKGMEYHFDNPTEAKKFAERMAKELGGELKVENGTLKVE [E16T]  1.7 kcal/mol
36. VTVDIKGMEYHFDNPFEAKKFAERMAKELGGELKVENGTLKVE [E16F]  1.7 kcal/mol
37. VTVDIKGMEYHFDNPEAAKKFAERMAKELGGELKVENGTLKVE [E17A]  1.7 kcal/mol
38. VTVDIKGMEYHFDNPMEAKKFAERMAKELGGELKVENGTLKVE [E16M]  1.71 kcal/mol
39. VTVDIKGMEYHFDNPIEAKKFAERMAKELGGELKVENGTLKVE [E16I]  1.71 kcal/mol
40. VTVDIKGMEYHFDNPVEAKKFAERMAKELGGELKVENGTLKVE [E16V]  1.74 kcal/mol
41. VTVDIKGMEYHFDNQEEAKKFAERMAKELGGELKVENGTLKVE [P15Q]  1.75 kcal/mol
42. VTVDIKGMEYHFDNPAEAKKFAERMAKELGGELKVENGTLKVE [E16A]  1.78 kcal/mol
43. VTVDIKGMEYHFDNPYEAKKFAERMAKELGGELKVENGTLKVE [E16Y]  1.79 kcal/mol
44. VTVDIKGMEYHFDNPWEAKKFAERMAKELGGELKVENGTLKVE [E16W]  1.98 kcal/mol
45. VTVDIKGMEYHFDNPDEAKKFAERMAKELGGELKVENGTLKVE [E16D]  2.02 kcal/mol
46. VTVDIKGMEYHFDNHEEAKKFAERMAKELGGELKVENGTLKVE [P15H]  2.05 kcal/mol
47. VTVDIKGMEYHFDNPEDAKKFAERMAKELGGELKVENGTLKVE [E17D]  2.08 kcal/mol
48. VTVDIKGMEYHFDNPECAKKFAERMAKELGGELKVENGTLKVE [E17C]  2.09 kcal/mol
49. VTVDIKGMEYHFDNEEEAKKFAERMAKELGGELKVENGTLKVE [P15E]  2.12 kcal/mol
50. VTVDIKGMEYHFDNPCEAKKFAERMAKELGGELKVENGTLKVE [E16C]  2.17 kcal/mol
51. VTVDIKGMEYHFDNVEEAKKFAERMAKELGGELKVENGTLKVE [P15V]  2.17 kcal/mol
52. VTVDIKGMEYHFDNAEEAKKFAERMAKELGGELKVENGTLKVE [P15A]  2.19 kcal/mol
53. VTVDIKGMEYHFDNCEEAKKFAERMAKELGGELKVENGTLKVE [P15C]  2.33 kcal/mol
54. VTVDIKGMEYHFDNIEEAKKFAERMAKELGGELKVENGTLKVE [P15I]  2.58 kcal/mol
55. VTVDIKGMEYHFDNLEEAKKFAERMAKELGGELKVENGTLKVE [P15L]  2.6 kcal/mol
56. VTVDIKGMEYHFDNMEEAKKFAERMAKELGGELKVENGTLKVE [P15M]  2.86 kcal/mol
57. VTVDIKGMEYHFDNFEEAKKFAERMAKELGGELKVENGTLKVE [P15F]  3.22 kcal/mol
58. VTVDIKGMEYHFDNYEEAKKFAERMAKELGGELKVENGTLKVE [P15Y]  3.25 kcal/mol
59. VTVDIKGMEYHFDNWEEAKKFAERMAKELGGELKVENGTLKVE [P15W]  3.73 kcal/mol
